Target: CD38 on cells (Raji, Daudi, REH, CD38-transfected HEK293) (human) (UniProt P28907)
Assay: flow cytometry on Raji cells; top asymptote fixed at about the maximum response of Darzalex

Adjusted* EC50: 1.27 nM
Substance: Darzalex® (CD38 control) (antibody)

Reference: US20260103536A1
